Measured values: article PMC3855715, “Two high-resolution structures of the human E3 ubiquitin ligase Siah1” (Acta Crystallographica Section F, 2013)

Assays:
[1] = target: the molecule itself; assay: SEC; size-exclusion chromatography during purification of Siah1 91-282; single species of approximate mass 39 kDa
[2] = target: T1, Siah1 (construct used for the complex with SIP, limits not stated) (human, UniProt Q8IUQ4 1-282); assay: SEC; size-exclusion gel chromatography of Siah1 with full-length SIP; complex purified; conditions: both partners purified
T1 construct: Siah1 (seven-in-absentia homologue 1), human, UniProt Q8IUQ4
T1 sequence (looked up): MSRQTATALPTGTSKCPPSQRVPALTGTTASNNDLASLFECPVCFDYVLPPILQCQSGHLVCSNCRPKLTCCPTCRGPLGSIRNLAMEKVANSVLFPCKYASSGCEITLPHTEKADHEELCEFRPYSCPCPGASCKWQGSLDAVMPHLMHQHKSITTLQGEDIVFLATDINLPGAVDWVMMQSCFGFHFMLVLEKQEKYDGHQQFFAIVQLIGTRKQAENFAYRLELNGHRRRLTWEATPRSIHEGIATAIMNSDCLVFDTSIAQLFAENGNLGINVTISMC

Row | Binder | stoichiometry N [1] | stoichiometry N [2]
1 | human Siah1 without the RING domain (residues 91-282) (domain or fragment, additional methionine at the N-terminus, a cloning artifact (seen in chain A of the 1.95 A structure); also called seven-in-absentia homologue 1; truncated Siah1; source: E. coli, purified as described previously (Rimsa et al., 2013)) MANSVLFPCKYASSGCEITLPHTEKADHEELCEFRPYSCPCPGASCKWQGSLDAVMPHLMHQHKSITTLQGEDIVFLATDINLPGAVDWVMMQSCFGFHFMLVLEKQEKYDGHQQFFAIVQLIGTRKQAENFAYRLELNGHRRRLTWEATPRSIHEGIATAIMNSDCLVFDTSIAQLFAENGNLGINVTISMC | 2 | 
2 | full-length human SIP (Siah-interacting protein) (natural protein, UniProt Q9HB71 1-228, looked up) MASEELQKDLEEVKVLLEKATRKRVRDALTAEKSKIETEIKNKMQQKSQKKAELLDNEKPAAVVAPITTGYTVKISNYGWDQSDKFVKIYITLTGVHQVPTENVQVHFTERSFDLLVKNLNGKSYSMIVNNLLKPISVEGSSKKVKTDTVLILCRKKVENTRWDYLTQVEKECKEKEKPSYDTETDPSEGLMNVLKKIYEDGDDDMKRTINKAWVESREKQAKGDTEF |  | 1
